Tests used:
[1] = biological target: cynomolgus monkey GLP1R (cynomolgus monkey) (UniProt F8V479); experiment: cell-based or functional assay
[2] = biological target: cynomolgus monkey GIPR (cynomolgus monkey); experiment: cell-based or functional assay

| In Vitro Potency GLP1R EC50 [nM], Cyno [1] [nM] | In Vitro Potency GIPR EC50 [nM], Cyno [2] [nM] | Substance |
| --- | --- | --- |
| 0.13 | – | Semaglutide (peptide) |
| – | 0.08 | Tirzepatide (peptide) |

— US20250320252A1, “LONG-ACTING DUAL GIP/GLP-1 PEPTIDE CONJUGATES AND METHODS OF USE” (The Scripps Research Institute, priority 2021, published 2025)
